Measurements reported in patent US11371056B2, “HPPD variants and methods of use” (BASF Agricultural Solutions Seed US LLC, priority 2017, dated 2022).
Changes are numbered by the printed parent chain.

Experiments:
[1] = test system: Pseudomonas fluorescens HPPD polypeptide (wild-type and mutants); test: Coupled HPPD activity assay: turnover and residual turnover in crude HPPD polypeptide extracts with and without Cmpd. 1; format: biochemical; details: for Turnover: absence of Cmpd. 1; for Turnover / Residual turnover: changes in absorbance (OD) at 320 nm in the coupled assay, 30 min; for Residual turnover: presence of 100 μM Cmpd. 1; for Residual turnover [%]: 100 μM Cmpd. 1, normalised to turnover without inhibitor
[2] = test system: soybean plants (transgenic T0 events, wild-type); test: Greenhouse spray test of T0 soybean events with Cmpd. 1, leaf area damage score; format: in vivo; parameters: key to leaf area damage score, 25th percentile / leaf area damage score, Interquartile range: damage score 0 (no damage) to 100 (complete bleaching); details: for leaf area damage score, 25th percentile / leaf area damage score, 75th percentile / leaf area damage score, 90th percentile / leaf area damage score, Median: T0 soybean events expressing the polypeptide; for leaf area damage score, 25th percentile / leaf area damage score, 75th percentile / leaf area damage score, 90th percentile / leaf area damage score, Median / leaf area damage score, Interquartile range: five days after application of Cmpd. 1 at 300 g AI/ha; for leaf area damage score, 75th percentile / leaf area damage score, 90th percentile / leaf area damage score, Median: scale 0 to 100; for leaf area damage score, Median: 50th percentile; for leaf area damage score, Interquartile range: difference between 75th and 25th percentile, T0 soybean events
Text: Tolerant green shoots were transferred to rooting media or grafted. Rooted plantlets were transferred to the greenhouse after an acclimation period. Plants containing the transgene were then sprayed with HPPD inhibitor herbicides, as for example with mesotrione at a rate of 300-600 g AI/ha, or with Cmpd. 1 (2-chloro-3-(methylsulfanyl)-N-(1-methyl-1H-tetrazol-5-yl)-4-(trifluoromethyl)benzamide) at a rate of 150 g-300 g AI/ha supplemented with ammonium sulfate and methyl ester rapeseed oil. Five to ten days after the application, the symptoms due to the application of the herbicide were evaluated and compared to the symptoms observed on wild-type plants under the same conditions.
For example, T0 soybean plants having a “plant expression cassette”, which includes an HPPD inhibitor tolerant HPPD polypeptide of the present invention, were tested towards the tolerance of Cmpd. 1.
Prior greenhouse trials with the transgenic plants, soybean transformants were routinely analyzed for the expression and presence of the transgenes using the ELISA protein detection method (see detailed description under item D and H). Only plants recovering in the selection media and having a detectable HPPD transgene protein expression were used for the herbicide tolerance analysis. A DeVries Tracker Sprayer was calibrated prior to each spraying. The chemical formulation used for Cmpd. 1 was supplemented with ammonium sulfate and methylated rape seed oil. Spray tests were conducted with a concentration, which equals to 300 grams AI per hectare (300 g AI/ha).
In greenhouse trials, independent T0 soybean events containing an exemplary mutant HPPD polypeptide were sprayed with the HPPD inhibitor herbicide Cmpd. 1 (2-chloro-3-(methylsulfanyl)-N-(1-methyl-1H-tetrazol-5-yl)-4-(trifluoromethyl)benzamide) at the rate of 300 grams AI/ha, supplemented with ammonium sulfate and methyl ester rapeseed oil. Five days after the application, the leaf damaged area due to the HPPD inhibitor herbicide is scored in a scale from 0 (no damage) to 100 (complete bleaching). Under those conditions, the wild-type plants were completely bleached and their damage scores were in the 95-100 range.
Table 5 presents the distribution of the HPPD inhibitor herbicide damage score data as percentile for exemplary mutant HPPD inhibitor herbicide tolerant polypeptides (SEQ ID NOs). The percentiles normalize ranks of the damage score from an individual plant in a population. […] The median is the 50th percentile. Half the values had higher damage scores; half had lower damage scores. The value of the 75th and 90th percentile is the damage score where 75% and 90% of the soybean events had lower damage scores, respectively. The difference between the 75th and 25th percentile is called the interquartile range and a marker to quantify scattering in the population. All constructs had only one single cassette insertion in the soybean genome.

[3] = scale 0 (no damage) to 100 (complete bleaching)

With CSc1c(C(F)(F)F)ccc(C(=O)Nc2nnnn2C)c1Cl [Cmpd. 1, 2-chloro-3-(methylsulfanyl)-N-(1-methyl-1H-tetrazol-5-yl)-4-(trifluoromethyl)benzamide, reference compound] the Turnover [1] was 0.236, the Residual turnover [1] was 0.042 and the damage scores ([2]; wild-type soybean plants, Cmpd. 1 300 g AI/ha, five days after application, scale 0 (no damage) to 100 (complete bleaching)) was 95-100.

B1: SEQ ID NO:50 (protein)
chain: MADLYENPMGLMGFEFIEFASPTPGTLEPIFEIMGFTKVATHRSKNVHLYRQGEINLILNNEPNSIASYFAAEHGPSVCGMAFRVKDSQKAYNRALELGAQPIHIDTGPMELNLPAIKGIGGAPLYLIDRFGEGSSIYDIDFVYLEGVERNPVGAGLKVIDHLTHNVYRGRMVYWANFYEKLFNFREARYFDIKGEYTGLTSKAMSAPDGMIKIPLNEESSKGAGQIEEFLMQFNGEGIQHVAFLTDDLVKTWDALKKIGMRFMTAPGDEYYEMLEGRLPDHGEPVDQLQARGILLDGSSVEGDKRLLLQIFSETLMGPVFFEFIQRKGDDGFGPHSFKVLFESIERDQVRRGVLTAD
modifications: mutant HPPD polypeptide
B1 was tested, and the “Residual turnover [%]” value [1] was 54%, the Turnover [1] was 0.272 and the Residual turnover [1] was 0.148.

B2: SEQ ID NO:69 (protein)
chain: B1 chain with T315Q, H336D
modifications: mutant HPPD polypeptide
For B2, the “Residual turnover [%]” value [1] was 40%, the Turnover [1] was 0.173 and the Residual turnover [1] was 0.069.

B3: SEQ ID NO:66 (protein)
chain: B1 chain with K213R, M264L, T315Q, H336D, S344Q
modifications: mutant HPPD polypeptide
B3 was tested, and the “Residual turnover [%]” value [1] was 65%, the Turnover [1] was 0.187 and the Residual turnover [1] was 0.122.

B4: SEQ ID NO:64 (protein)
chain: B1 chain with M264L, T315Q, I345M
modifications: mutant HPPD polypeptide
In the case of B4, the “Residual turnover [%]” value [1] is reported as 61%, the Turnover [1] is reported as 0.295 and the Residual turnover [1] is reported as 0.181.

B5: SEQ ID NO:55 (protein)
chain: B1 chain with K213R, M264L, T315K, I345M
modifications: mutant HPPD polypeptide
With B5 the “Residual turnover [%]” value [1] was 58%, the Turnover [1] was 0.303 and the Residual turnover [1] was 0.177.

B6: SEQ ID NO:53 (protein)
chain: B1 chain with K213R, M264L, S344Q, I345M
modifications: mutant HPPD polypeptide
With B6 the “Residual turnover [%]” value [1] was 73%, the Turnover [1] was 0.339 and the Residual turnover [1] was 0.246.

B7: SEQ ID NO: 45 (protein)
chain: B1 chain with I345M
modifications: mutant HPPD polypeptide
For B7, the “leaf area damage score, 25th percentile” value [2, 3] was 10.0, the “leaf area damage score, 75th percentile” value [2] was 25.0 and the “leaf area damage score, 90th percentile” value [2] was 35.0. The “leaf area damage score, Median” value [2] was 15.0 and the “leaf area damage score, Interquartile range” value [2] was 15.0.

B8: SEQ ID NO:54 (protein)
chain: B1 chain with K213R, M264L, T315K, S344Q, I345M
modifications: mutant HPPD polypeptide
In the case of B8, the “Residual turnover [%]” value [1] is reported as 82%, the Turnover [1] is reported as 0.274 and the Residual turnover [1] is reported as 0.224.

B9: SEQ ID NO: 23 (protein)
chain: B1 chain with K213R, T315Q
modifications: mutant HPPD polypeptide
In the case of B9, the “leaf area damage score, 25th percentile” value [2, 3] is reported as 10, the “leaf area damage score, 75th percentile” value [2] is reported as 22.5 and the “leaf area damage score, 90th percentile” value [2] is reported as 55.0. The “leaf area damage score, Median” value [2] was 10 and the “leaf area damage score, Interquartile range” value [2] was 12.5.

B10: SEQ ID NO:60 (protein)
chain: B1 chain with M264L, T315K, H336D, S344Q, I345M
modifications: mutant HPPD polypeptide
In the case of B10, the “Residual turnover [%]” value [1] is reported as 56%, the Turnover [1] is reported as 0.252 and the Residual turnover [1] is reported as 0.14.

B11: SEQ ID NO:59 (protein)
chain: B1 chain with K213R, M264L, T315K, H336D, S344Q, I345M
modifications: mutant HPPD polypeptide
B11 was tested, and the “Residual turnover [%]” value [1] was 59%, the Turnover [1] was 0.215 and the Residual turnover [1] was 0.126.

B12: SEQ ID NO:58 (protein)
chain: B1 chain with M264L, T315Q, S344Q, I345M
modifications: mutant HPPD polypeptide
B12 was tested, and the “Residual turnover [%]” value [1] was 81%, the Turnover [1] was 0.339 and the Residual turnover [1] was 0.276.

B13: SEQ ID NO: 2 (protein)
chain: B1 chain with K213R, G268P, E270T, H336W, S337N, K339A, V340Q
modifications: mutant HPPD polypeptide
In the case of B13, the “leaf area damage score, 25th percentile” value [2, 3] is reported as 15.0, the “leaf area damage score, 75th percentile” value [2] is reported as 45.0 and the “leaf area damage score, 90th percentile” value [2] is reported as 87.0. For the same molecule, the “leaf area damage score, Median” value [2] was 20.0 and the “leaf area damage score, Interquartile range” value [2] was 30.0.

B14: SEQ ID NO:56 (protein)
chain: B1 chain with K213R, M264L, T315Q, S344Q, I345M
modifications: mutant HPPD polypeptide
With B14 the “Residual turnover [%]” value [1] was 75%, the Turnover [1] was 0.339 and the Residual turnover [1] was 0.253.

B15: SEQ ID NO: 64 (protein)
chain: B1 chain with M264L, T315Q, I345M
modifications: mutant HPPD polypeptide
With B15 the “leaf area damage score, 25th percentile” value [2, 3] was 5.0, the “leaf area damage score, 75th percentile” value [2] was 25.0 and the “leaf area damage score, 90th percentile” value [2] was 38.0. The “leaf area damage score, Median” value [2] was 10.0 and the “leaf area damage score, Interquartile range” value [2] was 20.0.

B16: SEQ ID NO:51 (protein)
chain: B1 chain with K213R, P215A, T315Q
modifications: mutant HPPD polypeptide
For B16, the “Residual turnover [%]” value [1] was 61%, the Turnover [1] was 0.173 and the Residual turnover [1] was 0.106.

B17: SEQ ID NO:52 (protein)
chain: B1 chain with K213R, P215A, T315R
modifications: mutant HPPD polypeptide
B17 was tested, and the “Residual turnover [%]” value [1] was 61%, the Turnover [1] was 0.173 and the Residual turnover [1] was 0.105.

B18: SEQ ID NO: 43 (protein)
chain: B1 chain with T315K, I345M
modifications: mutant HPPD polypeptide
For B18, the “leaf area damage score, 25th percentile” value [2, 3] was 10.0, the “leaf area damage score, 75th percentile” value [2] was 25.0 and the “leaf area damage score, 90th percentile” value [2] was 35.0. For the same molecule, the “leaf area damage score, Median” value [2] was 10.0 and the “leaf area damage score, Interquartile range” value [2] was 15.0.

B19: SEQ ID NO:68 (protein)
chain: B1 chain with P215A, M264L, T315Q, H336D, S344Q
modifications: mutant HPPD polypeptide
With B19 the “Residual turnover [%]” value [1] was 74%, the Turnover [1] was 0.182 and the Residual turnover [1] was 0.134.

B20: SEQ ID NO:67 (protein)
chain: B1 chain with K213R, P215A, M264L, T315Q, H336D, I345V
modifications: mutant HPPD polypeptide
For B20, the “Residual turnover [%]” value [1] was 90%, the Turnover [1] was 0.141 and the Residual turnover [1] was 0.127.

B21: SEQ ID NO:63 (protein)
chain: B1 chain with P215A, M264L, T315K, S344Q, I345M
modifications: mutant HPPD polypeptide
B21 was tested, and the “Residual turnover [%]” value [1] was 67%, the Turnover [1] was 0.209 and the Residual turnover [1] was 0.139.

B22: SEQ ID NO:65 (protein)
chain: B1 chain with K213R, M264L, T315K, H336D, S344Q
modifications: mutant HPPD polypeptide
For B22, the “Residual turnover [%]” value [1] was 60%, the Turnover [1] was 0.204 and the Residual turnover [1] was 0.123.
